In the DeepSol protein solubility set:

test: soluble on expression in E. coli; label from the status in PepcDB or PDB records

Soluble on expression in E. coli, not soluble:
MGSDKIHHHHHHMKFSKLADQVWGEEPDDQVRSFVFMSNLDAQETANTMDVSVSVERIHADLCGNTELASELHYTPDEWDEAQGWVKINYPLIDDTASASLDVVLDATFQPLPGQPFEGEALTLIDALLHHAENVAASNPWKRTTFHTAHMHPPGSNADCDYCLVLQRRGYVKAHEEIQQTIPLPSGDWSAGEFTVVDVEGTAFPSALIPSIVELQHRAALDVPHGNLSVAPAQWDEHRLAQQSERILKTGTKLFTVLFAEGSTVAAMSSIAIPPGSNPDIAEQGLTIVHPDFRGRGLGTAVKLAGLSLLSRCHPEIQRVATSNAVDNHAMLAINRSIGATEIARTTLWEKKL
MGSDKIHHHHHHMIFDGYEAYRAANFKPKVCILGSGPAGTTIARKLGAAGIPVVVLEAGSREFSDESQDFYRGTKVGDFYFDLDITRLRYMGGSSNHWAGWCRVLDKLDFEPKAWAPDTGWPIRRADIEPYLTEVRDILELPDFRPDVPISDDIRWVQLIKSPAVRFAEKFADELDKSGNIAVVLNTYATELAGDGKRVTGAKLWSNGQDAGAFSADYFIVCTGGLENSRLLLWSNQRSNGGVVPNATALGRYWMEHPTFEGGNAILADYGEFEVDAVNEAFFSPTLAAMERLRIMNFGIRLIETPYAGVKHVIADLACTAPDMAEWVAYQLSQNLRCAAQLYVAWEQAPLASNQIELSKTDVDHAGVPRIELHWKKSELERRTLVEGLKLFGTTLIEKDLGRVRLMDWIANGEDYPTDEETAGHHHMGGTRMGIDMTRSVVDANCKVHGMDNLYVGGSSVFCTSGQANPTTTITALACRLGEHLSKVVAV
MGSDKIHHHHHHMNQIIPTSANGCIPNVYFMGRWTTQTVESKPAMYTTNLGAQILFEVQNADYFTLEAVINPLSAPQTLSIYIDDELHLTPLTRSKNDFKLSSNQSHIVRIYFTGNTDQDEIWLGNDGLTIKDITIASGTLAAIKPAGPLVAFIGDSITAGCWVRSKAPSIGYGADLNYAAQLSRALDWEDYRIAYSAAGIIRYGTGGVPPAGKFVKYVNFSVKAPRINPDLVLINLGTNDARYEDDVFEMYFVWFINEVKKQFPHARIIIITPFNQAHSHVIKNVAKALKIELIPTLDWVIETNDEVHPNVEGSKAISDHLVAWFTEPQNRLQSE
MGSDKIHHHHHHMSNLPLISVVIPTYGREEILRDSIVDVLNQDYPKYEVLVVDQSPKHKPEIETYLEEVAAAGKVKWFRLDWASLPGARNYAIRRASGEIILFIDDDVKLKPGFLAAHAKNYVQNPDVGSVAGRVFDRMKLGDSGGNLEIEYLPPEAMDPGVAWYHIDLVHTIKPQQVLTARGCNMSFRREIFTKHGLRFDERFRGSAVREESDFCLRLRQTGYKIWYDPEADLIHLGEETGGCHDISMRSLKYQFTFYHNHFLLGLKNLNFSQALRLYARLFDCHVLGRPPCHKSGSPIKIITRGIFYILGFFRALGSVIQSNWHDGQIYSRLDQESIIKSQESMVNS
MGSDKIHHHHHHMGKPVSSPYYIGCSGWHYAHWVGAFYPPGLPSTGRLAFYAGRFHTVEINSSFYRLPSEKCLRAWHDGTPAGFLFALKASRFITHMKKLKDSEASLARLLGRAENLGEKLGPVLFQLPPHWRRNAKRLEGFLRVLPSGHRYAFEIRDPSWHHPEIYALLNAYNAAFCIFDIAGFQSPIQLTTDFAYIRLHGPSFAAYAGRYTTEALRAWAARIRTWGLRTVYVYFDNDQAAYATHNALELMGILGL
GEDFFFVVMRDISSKKILEREFSMNEQLFKDLFDRAVDGIVLFDKDGGFIDANLSFCKSFEINHNELSHLSLYEFIDSGSRKDFDNIWKALNRKGKAKGELPVKLRSGVQKLFEFTITSNII
MGSDKIHHHHHHMTKPDMSKLASLSPFELKDELIKLASSDADRLMLNAGRGNPNFLATIPRHGFWQLGLFAMRESERSFSYMPEGVGGFPRREGIEERFDLFAREFAHVPGVSFLAGAVSYVRDQLGLNAGAFLYEMCEGILACNYPVPDRMLKLSEVIVGQYIRKEMIGNHPFIGEFDLFAVEGGTAAMTYLFNSIRENHLLKAGDTIALGMPIFTPYIEIPELNDYKLVELSVEADPGERWQYSNKELDKLRDPKVKAFFLVNPSNPPSVRMSDESLEYLASIIEERPDLIILTDDVYGTFADNFVSLFAMCPKNTILVYSFSKYFGATGWRLGVIATHRDNVFDEKIAALPDAARKELHERYTSITTEPDKLKFIDRLVADSRTVALNHTAGLSTPQQVQMVLFSLFSLMDTPDNYKIAMKRLIRNRKAALYREIGIAPEADDPNAVDYYTLLDIEALGGKALGPDFVKWVLASVEPNELLFRLAEDAGVVLLPGRGFGTRHPSGRVSLANLNESDYAKIGRSIRKLFEEYVEKYNEATGNKANKHVVKK

Soluble on expression in E. coli, soluble:
MALKVIKISRVSPATASVDPLIVPLSFFDLQWLKLNPTEQVFFYKLTESSSSRDVFYSSILPKLERSLSLILTHFRLFTGHLKWDSQDPKPHLVVLSGDTLSLTVAETDADFSRISGRGLRPELELRPLIPELPIYSDSGAVVSLQVTLFPKQGFCIGTTAHHVVLDGKTAEKFNKAWAHTCKHGTIPKILPTVLDRSVVNVPAGLEQKMLELLPYLTEDDKENGRTLKLPPVKEINAKDNVLRITIEISPENIEKLKERAKKESTRAELHLSTFVVTFAHVWTCMVKARSGDPNRPVRFMYAADFRNRLEPPVPVTYFGTCVLAMDFYKYKAKEFMGEDGFVNTVEILSDSVKRLASQGVESTWKVYEEGTKTMKWGTQLLVVNGSNQIGMYETDFGWGRPIHTETMSIYKNDEFSMSKRRDGIGGVEIGISLKKLEMDTFLSLFYKWIGN
MSLSSKRDIEANTDLNSITYIPTFPEPFERDNSHTTASFVSIQIRLLVASVTEENFLDTEHQIYYLLQRGSFSVYISYWKLLIQLFVNEFEAQQQKRDLNLPFRFDFSNLVHRLLYNLAQELITRTPDTIEKVKELALPLSGKYPIRPLFLSFLNKDNESDSAIIEALNPEVHPIFTTLKDLHRTNMSVSNITQNLFAVENKPNFLTMLSEFLKPLQGETLNDWIALILSEILAPGSQTSNQPSQPWIVQVPNVDVREVIEATEMGTKVNGIIKSLGTNNVNWNRVFNLMSTKFFLNKPVNATLSSLNYLFCILNSGPLVDQFFACDWSLYFKLRLSFLMYQWNYNSECLDLSSLPNIKKINKSIPLTKKSQLSLISVGKLNIELFLSRDEISKNPLFSSFHASFSEAYNNVPEYLAAVLISESKYFSLLVDNKSIIDELLISLVIKTYENNVIAFKELLKLVSKQKVIEVSRGIIASQNAQTINLVQALHDLGILDEVFEKLPIRDSLKLSPTAMHLGYLKFSEYIERNITLKTFVPTLDFIEAQTNIDELDPALKSVKLLNLHSLHSLIYRTANLKLSADERVALNNVIFKALISFPRLINYGYGHDDAIVANGDHAPIPQDVEKKMQTYLQKMYNKEMAIKDIVDILRKLRDSDDSNDQDIFCCIIHAVIAETTFFKEYPLEALATTSVLFGSMILFDLLRGFVLDVAFQIIYTFASESPDSKMFKFAVQALYAFRMRLNEYSPFCKRLLDEIPGLQTQPQIQQILTESAANPNVSEGHHHHHH
MLWPFRWVWWKRVLTSQTRAPAKPNPLTVPPTCTWWSLRKLPNPTKLDDDLKNLLDPNEVRARMLKSFGTENFTQPQPQPQALKTTTPVFGTSSGNLGSVLSGGGYHAGLKHHQSTVTRSTGEWVDR
MNRQELITEALKARDMAYAPYSKFQVGAALLTKDGKVYRGCNIENAAYSMCNCAERTALFKAVSEGDTEFQMLAVAADTPGPVSPCGACRQVISELCTKDVIVVLTNLQGQIKEMTVEELLPGAFSSEDLHDERKL
MNIPTTTTKGEQAKSQLIAAALAQFGEYGLHATTRDIAALAGQNIAAITYYFGSKEDLYLACAQWIADFLGEKFRPHAEKAERLFSQPAPDRDAIRELILLACKNMIMLLTQEDTVNLSKFISREQLSPTSAYQLVHEQVIDPLHTHLTRLVAAYTGCDANDTRMILHTHALLGEVLAFRLGKETILLRTGWPQFDEEKAELIYQTVTCHIDLILHGLTQRSLD
GAMGMKVDVGPDPSLVYRPDVDPEMAKSKDSFRNYTSGPLLDRVFTTYKLMHTHQTVDFVSRKRIQYGSFSYKKMTIMEAVGMLDDLVDESDPDVDFPNSFHAFQTAEGIRKAHPDKDWFHLVGLLHDLGKIMALWGEPQWAVVGDTFPVGCRPQASVVFCDSTFQDNPDLQDPRYSTELGMYQPHCGLENVLMSWGHDEYLYQMMKFNKFSLPSEAFYMIRFHSFYPWHTGGDYRQLCSQQDLDMLPWVQEFNKFDLYTKCPDLPDVESLRPYYQGLIDKYCPGTLSW
